In a protein production outcome set (Wang et al. 2014):

Experiment: label from the status in PepcDB records

Q: Which protein production does the source give for “MAEKSNKLDHIGIAVTSIKDVLPFYVGSLKLKLLGMEDLPSQGVKIAFLEIGESKIELLEPLSEESPIAKFIQKRGEGIHHIAIGVKSIEERIQEVKENGVQMINDEPVPGARGAQVAFLHPRSARGVLYEFCEKKEQ” here?
A: not failed

Q: With “MQTVLKKRKKSGYGYIPDIADIRDFSYTPEKSVIAALPPKVDLTPSFQVYDQGRIGSCTANALAAAIQFERIHDKQSPEFIPSRLFIYYNERKIEGHVNYDSGAMIRDGIKVLHKLGVCPEKEWPYGDTPADQKTEEFPPGAPASKKPSDQCYKEARNYKITEYSRVAQDIDHLKACLAAGSPFVFGFSVYNSWVGNNSLPVKIPLPTKNDKLEGGHAVLCVGYDDEIRHFRIRNSWGNNVGENGYFWMPYEYIRNRQLADDFWVIKTVRK” as the sequence, how does the protein production read?
A: failed

Q: With “ISRRNQDMLLSVLDLEKMTVDDIMVPRSEIIGIDINDDWKSILRQLSHSPHGRIVLYRDSLDDAISMLRVREAWRLMSEKKEFTKETMLRAADEIYFVPEGTPLSTQLVKFQRNKKKVGLVVNEYGDIQGLVTVEDILEEIVGDFTTSMS” as the sequence, how does the protein production read?
A: not failed

Q: Which protein production does the source give for “MKIAILYREEREKEGEFLKEKISKEHEVIEFGEANAPGRVTADLIVVVGGDGTVLKAAKKAADGTPMVGFKAGRLGFLTSYTLDEIDRFLEDLRNWNFREETRWFIQIESELGNHLALNDVTLERDLSGKMVEIEVEVEHHSSMWFFADGVVISTPTGSTAYSLSIGGPIIFPECEVLEISPIAPQFFLTRSVVIPSNFKVVVESQRDINMLVDGVLTGKTKRIEVKKSRRYVRILRPPEYDYVTVIRDKLGYGRRIE” here?
A: not failed

Q: With “VGTIDQLVKRVIEGSLSPKERTLLKEDPAYWFLSDENSLEYKYYKLKLAEMQR” as the sequence, how does the protein production read?
A: not failed

Q: Which protein production does the source give for “MKLATFDDGSRDGRLLVVARDLGHAVDASDIATSLQVALENWPQVEARLQALYQQLNDDAVAGAFALDLARLAAPLPRASQWLDGSCFLSHGALMQKAFNLDPIEGVEHTPLIYQGASDDFLGPLADIPLPSEAHGIDFEGEFAVLLDDVPMGCPAEQALQHVRLILQLNDVSLRALAPREMKTGFGFLQAKPASSFAPVAVTPDELGEAWRDGRVHLPLHVHWNGEWFGHPHGGAMHFGFHQLIAHAALTRRLSAGTLLGSGTVSNAERSVGSACIAERRAIETIACGAPRTAFMRFGDRVRMEARGPEGEVLFGAIDQRVVRGGWPCE” here?
A: failed

Q: Which protein production does the source give for “MRFLLMRSLLVHPCGGSIINVRSTTTSAQYVASRSRDPVFEKLMDKYKNLLKVIAIQDLTLANPTADPPSLSIEFLSRLSQKLHLNRGAASFLRKYPHIFHVLYDPVKAEPFCRLTDVAMEISRQEALAITATLSLVVDRLVRLLSMSISKSIPLRAVFKVWRELGLPDDFEDSVISKNPHLFKLSDGHESNTHILELVQEEEKRLEFEAAVEKWRVVECSKEDCSVDRTEIQFSFKHSYPPGMRLSKTFKAKVKEWQRLPYVGPYEDMVGKKKSRSGVMGIEKRAVAIAHEFLNLTVEKMVEVEKISHFRKCFGIDLNIRDLFLDHPGMFYVSTKGKRHTVFLREAYERGRLIDPNPVYDARRKLLDLVLLGRHAALSESGNTSMSEQE” here?
A: failed

Q: With “MAEQDLTMIVGTYTSGDSKGLYSFRFNEENGTATALSEAEVENPSYLVPSADGKFIYAVSEFSNEQAAANAFAFNKEEGTFRLLNTQKTGGEDPCYIITNGSNVVTANYSGGSISVFPIDKDGSLLPASEVVKFKGSGADKERQEKPHLHCVRITPDGKYLFADDLGTDQIHKFIVNPNAKADNEDVFLKEGSPASYKVEAGSGPRHLTFAPNGSYAYLINELSGTVIAFEYNDGELKEIQTIAADTVGAKGSGDIHISPDGKFLYASNRLKADGLAIFSIHPENGMLTKVGYQLTGIHPRNFIITPNGKYLLVACRDSNVIQVYERDTDTGLLTDIRKDIKVDKPVCIKFVPLEHHHHHH” as the sequence, how does the protein production read?
A: not failed

Q: Which protein production does the source give for “MTRLIQAIFILGFAAFVACTPKSAKSFAKAEVQYKQAEYQHAIENYQQSLSEGGDVAQCNYYIAESYRRSNRIQEAEPFYKKAIEAGIKDEEAHFFYANALKSVGNYEGAATQYKQYIKTGSNFDYINRAKKELENLKALQEVVEKETYYKVENIGQINSPEAEYAPYIYKNQLYFTSSRDAEKMHAATGTGFTNIHEYVFDGVEKFSGQSVPLSNAINTDGAHEASCILTKDGKTMIFARGNSGAKKGPQDVDLFKTTLQSDGKWSEPVMLAINDPAAWDACPALSLDEKTLYFASNREAEGALGNVDIYKATLDEKGEWSNPVNIGAPINTRGNDMYPSFNKDGKFYFASDGHPSLGSLDIFYVDPKESKIVNMGKPINTSYDDFGLVWKDSLEGYFASNRIDNGAKGDDDIYFVRNTFWDRRAKYYVDGTSFAKSKKNPKAILPNSIIYLLSCKGDTLKSIVSDTEGKFEFELKPDTCYYLAAHSDKYFAMPKSEWTPVKIATVPIKDLDIGDNSIKKKAEVMLVKKERIVIVRNILYDYDKWDIRPDAAVELDTMVMLMNANPEIQIELGSHTDERGSAEYNRVLAQKRAQAAVDYIIAHGISKDRIIAKGYGEDEPAIRNAKTEADHQTNRRTTFKVLNHFSDELEIKSGE” here?
A: failed

Q: Which protein production does the source give for “MNNNLQRDAIAAAIDVLNEERVIAYPTEAVFGVGCDPDSETAVMRLLELKQRPVDKGLILIAANYEQLKPYIDDTMLTDVQRETIFSRWPGPVTFVFPAPATTPRWLTGRFDSLAVRVTDHPLVVALCQAYGKPLVSTSANLSGLPPCRTVDEVRAQFGAAFPVVPGETGGRLNPSEIRDALTGELFRQG” here?
A: not failed

Q: For “MEQRVLGGRYLLKDKVGTGGMATVYRAQDQVLDRTVAVKIMLPQYAGDATFAARFKQEAQAAAGLSSPYIVGVYDWGKDGDTYYIVMEYLRGTDLKSGIKSHGALDPKKVAQIGSQISSALSVAHKHEIIHRDIKPQNIMVLPDGNIKVMDFGIARAKNSHLTQDNNVLGTAHYVSPEQTRGQDLGPTSDIYSLGVVMYECATGRVPFDGDDAISVALKQVNELPIPPSQINSGVDADLERIILKCMEKDPTNRFQTADELRQVLNSYLSGRAVNVSEPTRIIGAPGELGATKTRELSDQTRAMVRPVSGVSGQNTARSSVSGSTGSYEVEEPKSNKNKIIAAVVAAVAVIGIVVAFATGLFGGEQVTVPDVLGKDQQTAVELIKEAGLEVGTIDQSYNDDVDEGKVAEQTPNGNTKKTKGTKVNLVISKGPKPSEKVEVPKLVGLTKDQAEAALASVGLKGNASEEANEADEGQVFEQGTEAGKEVAKGTTISYKVSSGPDTTSVPDLTDMTEAQARNALDMAGFGVDVSYQENDSVTEGTVISWNPSGKQKPGATITVVIAKKSGKATVPGNLYGKSISAAVTALNNAGFYNIGFCDQNGNPVSGNEDATVTGVSPTGKQSTDSTITLTVALSGSGSGSGTSTGDDSGTTN”, which protein production is on record?
A: failed

Q: With “NTMRSFILRARSAPTDSQRLLDEIGGKCHTEILAHCMMNSLFTAQSHREDVVIHLVLESTRDYSRTITVEANEISDVGGFHEAALIALLVKALDASVGMGKEQTRVVQPGLTVRTISFEALLGELAEHHSLYMMDKKGDSIRDIKIGPNPCFILTDHIPMPKKSGNSMKRLGVEKISLGPKMLFASQCVTLIHNEIDHQEA” as the sequence, how does the protein production read?
A: failed

Q: For “MNWKDKVKTTFYSCDRFVRFVIQHFIQDDCTYIASALAFTSLLAVVPLMSVGLAIFSSFPVFQGLAEPVQNFIFDNFVPATGKIVQSYLQQFTSQVSKLSIWGIVFLIFTALLVMFTIERAMNKIWRVSSSRHGVSAFLLYWAIISLAPVLLGLSLAASSYLFSMPILADHRAPYTILHYSPFFLSLIGFTFLYVVVPNCPVKIRHAFWGGLVAAILFESAKHAFAYYLIRYNTYALLYGAFATVPIFFIWVYWVWIITLLGAEISYAFSVHHQRRGGKSLDGFSHALLWLHQLWLAQQHGKGLSFNDLVDASKQPFAVDVDEMINALIYHELIHATADGHYMLSRDLSHVTLYDLTQLLPYRLPTHLELQYSKASLAEQWRAAFKRHNEELKKSLDINLEELFKKTGTVIK”, which protein production is on record?
A: failed

Q: Which protein production does the source give for “MWKRGKISTQLDDDEFRAGMRKAQVIDVREKKEFDAGHILGARNIPYSQMKNRTQELRSDLPVYLYDQGRTFSGRAAMLLSKKGFTQLYILKNGYQRWTGKTKKTKYLEHHHHHH” here?
A: not failed

Q: With “GSAQPRHDAQRPALAPRSDGFDIHTYHPDFVADPYPLLRLIRSRAPVCRDQASIWWISRYADVSACLRDRRFSADPARLGAAGVRQGGASWFGHQQLQPLARFYDNFMLFNDAPRHTRLRRLFAPAFGPDAVRRWEARIEVLVEELLDSLLERREPDLLRDFAEPLTIRVAAELFGFPREDTGQLLPWGRDLAAGLDLAASHGDAGQINRSAVAFSDYLQRQARGWSDGSSRPPSGAAPSILDGAAMLEAGLGLEDLVAAYAMVFMAAFETTISMVGNATLALLTHPDQLDLLRRCPELAANAVEELLRFDGAVRGGVRCTLEEVEIGGQRIPPGEKVWLSFLAANRDPEMFAAPDRLQLQRANAKQHVAFAHGPHYCLGAYLARLELQCALRGLVRRRFALASEPTDLRWRRSSVFRTLERLPIVP” as the sequence, how does the protein production read?
A: failed

Q: For “MTENTKISLIVQEADYNDVGRGYAKINNDVMAKLGVESGDFIKITGKRMGAAKVMRSSVSGSGGIAIDGDIRRSAGAGIGDTVTVEKVVPKTAAKITLQPISQSIRLDSRALEQTIQSKFAGRPITKGQIMTFGFQTKSEDPFFSGWGGFSNYNTEYVDFAVSDVSPGDVAIIGSETTVNYKDSVYKGEDAPKGKSAGNIHYEDIGGLGRELSLVREMIEYPLRHPEVFEKLGIEPPKGVLLYGPPGTGKTLIARAVANEAGAYFDTISGPEIISKYYGDSEEKLREIFEKAEENAPSIIFIDEIDSIAPKREESKGEVERRVVAQLLSLMDGLKSRGKVIVIAATNLPDSIDPALRRGGRFDREIEIGVPDKDGRREILQIHARNVPLSENVKLEKYANTTHGFVGADLALMVKEAAMHALRRAFPGMNPDEEISAEKLENLKVTAEDFESALKMVQPSAMREVLVEVPDIHWADVGGLDSVKEELQQAVEWPLKYREVYKQFATKSPKGFLMFGPPGTGKTLLAKAVANESECNFISVKGPELMSKWVGESEKGIREIFRKARLASPSIIFFDEIDSIVPRRGSYEGSSHVTESVVSQFLTELDGLEELKNVVVIGATNRPDMIDPALLRPGRLEQHIFVPPPDREGRKQILDVYIKDISSMLAEDVNLDELVDKTEGFVGADIEALVREAKMVAIREFVKVMAGHDAAEITLAVSSVKVFGRHFDAALKRVRPSLDKEGRRSAERGSWQYRFNEEERKTLEKGISVVETAEYKDAGSTPELRELDELLMAHQKDFSRIKEIIKTADA”, which protein production is on record?
A: failed

Q: With “MKLSMQMLKKSSLIPSDLTDTLLLVGSGWDDYSFKTSFTVMHFGPDAKKTELGTTKIGYKDQQHGWTSEKFSTKNISLSDDFFSLGQDVDFYRKLQGGLSADAALAVLQALKDVIADPLRLEDVKNEQVFRESLMRNVSWSVIRDQFKRVLAGKPELTSFHFSYQTNGDEQRAGVDVSFKVTPHSLPSTNVHVLIGRNGVGKTTILNDMVETILSDTTGRPHCGKFLIYDSLGSEPMPTDYFSSVVSVSFSAFDPFLFPADQPDRSKGVAYFYVGMQSPGEGPGKRPPKTTEALTEDFITSLESCFSQESKRQRWVAAIKRLESDSNFEDMDLAHLNELPTDEAIVKAHRIFSRMSSGHSIVLLTLTKLVEAVEEKTLVLMDEPESHLHPPLLSAFTRAISDLLQDRNGVAIIATHSPVVVQEAPGSCVWKLTRLRAEGRADRPERETFGENAGVLTREIFGLEVNKSGYHEVLQEAVNRGGTFESILADYQEQLGFEAQAILRKMVASRRES” as the sequence, how does the protein production read?
A: failed

Q: With “MDETEHMPRYTLTLVDSTGAMEPLILMDDDLKSIAAKLEGRVSAKTRGRRPRGTGGISATPKGYRAYSTVTDPLTGKDHRVSGFGRTRSQAEARLKEKLAEFDRTHRVGYVRPPTVAEWMDHWLTDVCKPRLKPRTWGTYASVIANNIVPSIGAVRLDELKPAHFRRMERYVMDEQGKSSGTAGSAWRTLHKALEDAVLEGVIERNPAVKGTAPRVALKERAALTPEQAADLIAAETDDTWRLMWMLAFMTGMRQGERLGLTEDELRRDGDRLIILVEWQAQHLTKREVEGLPKGVECTPLGNGMYRTRPKTEKGRRAIPLPEALADQLLAYIERHGVNGDGLVFHDDRGLPLTGCVERRRWYRALDRVGLGHEYVPHSARHTTATILNRLGLDDVTRTAIMGHSRVSTTNEIYTHVELDRLVAATDGVERAIEG” as the sequence, how does the protein production read?
A: failed
